Measured values published in US20060034759A1.

Assays:
[1] = biological target: hMN-14×734 (Fab×Fab) bi-specific antibody; test: SE-HPLC shift with WI2 after incubation of radioiodinated bsAb in human serum at 37° C.
[2] = biological target: carcinoembryonic antigen (CEA) (UniProt P06731); test: analytical size exclusion HPLC, radioiodinated bsAb with 10-20× molar excess of CEA
[3] = biological target: Ac-Lys(DTPA)-Tyr-Lys(DTPA)-Lys(Tscg-Cys)-NH2 (IMP 192); test: calculated from biodistribution in GW-39 tumor-bearing nude mice, 1 h after peptide, assuming one peptide bound to one bsAb
[4] = biological target: Ac-Lys(DTPA)-Tyr-Lys(DTPA)-Lys(Tscg-Cys)-NH2 (IMP 192); test: calculated from biodistribution in GW-39 tumor-bearing nude mice, 3 h after peptide, assuming one peptide bound to one bsAb
[5] = biological target: Ac-Lys(DTPA)-Tyr-Lys(DTPA)-Lys(Tscg-Cys)-NH2 (IMP 192); test: calculated from biodistribution in GW-39 tumor-bearing nude mice, 24 h after peptide, assuming one peptide bound to one bsAb
[6] = biological target: Ac-Lys(DTPA)-Tyr-Lys(DTPA)-Lys(Tscg-Cys)-NH2 (IMP 192); test: calculated from biodistribution in GW-39 tumor-bearing nude mice, 30 min after peptide, assuming one peptide bound to one bsAb
[7] = biological target: carcinoembryonic antigen (CEA) (UniProt P06731); test: SE-HPLC, 125I-labeled bsMAb with an excess of CEA
[8] = biological target: peptide containing a single HSG substituent and a thiol; test: BIAcore, CM-5 chip derivatised with the mono HSG peptide
[9] = biological target: DOTA-Phe-Lys(HSG)-D-Tyr-Lys(HSG)-NH2 (IMP 241); test: in vivo pretargeting, GW-39 tumor-bearing nude mice, 3 h after 111In-IMP-241
[10] = biological target: carcinoembryonic antigen (CEA) (UniProt P06731); test: immunoreactivity test of 99mTc-hMN-14 Fab′, method and antigen not stated

carcinoembryonic antigen (CEA), sequence (P06731 35-685 limits assumed): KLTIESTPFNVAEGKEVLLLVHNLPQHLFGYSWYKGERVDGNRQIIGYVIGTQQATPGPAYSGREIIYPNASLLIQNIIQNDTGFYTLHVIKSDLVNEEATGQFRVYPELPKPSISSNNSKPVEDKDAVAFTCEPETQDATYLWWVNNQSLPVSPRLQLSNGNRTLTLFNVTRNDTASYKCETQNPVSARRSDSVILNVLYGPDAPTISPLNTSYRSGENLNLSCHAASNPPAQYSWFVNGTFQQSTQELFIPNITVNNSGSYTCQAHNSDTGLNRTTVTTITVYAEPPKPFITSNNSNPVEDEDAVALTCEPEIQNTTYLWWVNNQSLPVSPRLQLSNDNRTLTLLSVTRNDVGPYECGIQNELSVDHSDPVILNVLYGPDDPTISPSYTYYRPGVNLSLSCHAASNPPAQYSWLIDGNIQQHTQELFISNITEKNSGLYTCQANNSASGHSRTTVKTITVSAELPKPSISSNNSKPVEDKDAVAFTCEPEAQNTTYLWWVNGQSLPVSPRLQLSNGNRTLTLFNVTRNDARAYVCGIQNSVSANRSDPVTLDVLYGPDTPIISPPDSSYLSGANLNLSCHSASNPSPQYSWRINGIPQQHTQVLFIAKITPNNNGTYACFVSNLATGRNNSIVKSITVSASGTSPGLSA

## WI2 (rat anti-MN-14 idiotypic antibody)
[1]
  % loss of binding capacity to WI2 after 48 h in serum: 3 to 5%

## hMN-14×734 (Fab×Fab) bi-specific antibody (bispecific antibody)
[2]
  percent of bsAb bound: 90%
[3]
  % saturation on hMN-14 × 734 (available DTPA binding sites on the tumor bound bsAb filled with 99m-Tc-IMP-192): 25.8%
[4]
  % saturation on hMN-14 × 734 (available DTPA binding sites on the tumor bound bsAb filled with 99m-Tc-IMP-192): 25%
[5]
  % saturation on hMN-14 × 734 (available DTPA binding sites on the tumor bound bsAb filled with 99m-Tc-IMP-192): 28%
[6]
  % saturation on hMN-14 × 734 (available DTPA binding sites on the tumor bound bsAb filled with 99m-Tc-IMP-192): 25.4%

## hMN-14×m679 F(ab′)2 bsMAb (bispecific antibody)
[7]
  percent of radiolabeled product shifting to a higher molecular weight: > 90%
[8]
  Kd: 1.5 nM
[9]
  ratio of the % ID/g of the peptide compared to the bsMAb in the tumor: 3.9

B1: 99mTc-hMN-14 Fab′ (humanized MN-14 Fab′-SH) (Fab, INN chains, looked up, V domains shown)
VH: EVQLVESGGGVVQPGRSLRLSCSASGFDFTTYWMSWVRQAPGKGLEWIGEIHPDSSTINYAPSLKDRFTISRDNAKNTLFLQMDSLRPEDTGVYFCASLYFGFPWFAYWGQGTPVTVSS
VL: DIQLTQSPSSLSASVGDRVTITCKASQDVGTSVAWYQQKPGKAPKLLIYWTSTRHTGVPSRFSGSGSGTDFTFTISSLQPEDIATYYCQQYSLYRSFGQGTKVEIK
modifications: Fab' 99mTc label
[10]
  immunoreactive fraction: 92%
